Test results reported in patent US20210062171A1, “NOVEL SIALIDASES AND USES THEREOF” (The Regents of the University of California, priority 2019, published 2021).
Entries after “also recorded” stand apart in the source; their conditions may differ.

Tests used:
Format in all cases: biochemical
[1] = Fluorogenic sialidase assay with 4MU-α-Neu5Gc; settings: for Hydrolysis of 4MU-α-Neu5Gc: compost metagenomic fosmid clones in E. coli, fluorescence λex=365 nm, λem=445 nm; for Preference for Neu5Gc hydrolysis compared to known bacterial exo-sialidases: in vitro, 4MU-α-Neu5Gc versus 4MU-α-Neu5Ac, comparators Au, Cp, Mv, St, Vc sialidases
Text: To determine if Neu5Gc-specific sialidases are restricted to enteric bacteria, we utilized functional metagenomic screening to identify exo-sialidases with a Neu5Gc specificity in a terrestrial environment. A fosmid library containing ˜40 kb inserts of total environmental DNA isolated from soil from an organic composting facility was constructed in E. coli Lysates from 5,376 clones were screened for hydrolysis of 4MU-α-Neu5Gc. During environmental DNA extraction 100, environmental samples 102 are collected and environmental DNA 104 is extracted. DNA extraction is followed by metagenomics library production 110 where fosmid vectors 112 are ligated with environmental DNA to produce plasmids 114 that are transfected into E. coli cells 116. During functional screening 120, one clone 122 is present per well in a well plate and hits 124 are selected by a means known in the art. Following functional screening 120, hits 132 are sequenced during a sequencing step 130 using any method for sequencing known in the art. Gene prediction and database comparison 140 is used to identify enzyme candidates 142; the enzyme candidates are expressed and characterized 150 in plasmids 152, which are transfected into E. coli and expressed as enzymes 154 for further characterization and/or use.
(§1) Following the enzyme selection process, clones showing activity were tested subsequently and re-tested for their ability to cleave 4MU-α-Neu5Ac. […] The DNA sequence of cloned inserts from C19 and C22 each encoded a single bacterial sialidase gene.
(§2) The compost metagenomic library (theoretically encoding ˜215,000 environmental genes) was differentially screened with fluorogenic 2′-(4-methylumbelliferyl)-α-D-N-glycolylneuraminic acid (4MU-α-Neu5Gc) (Sussex Research, Ottawa, CA) and 2′-(4-methylumbelliferyl)-α-D-N-acetyineuraminic acid 4MU-α-Neu5Ac (Toronto Research Chemicals, Toronto, CA) substrates. In a primary screen, library clones were grown in 384-well plates containing 50 μL LB liquid cultures (10 g tryptone. 5 g yeast extract, 10 g NaCl, 1 g dextrose, 1 g MgCl2-6H2O, 2 mL of 2M NaOH per liter, containing chloramphenicol 12.5 μg/mL and 1× inducing solution (Lucigen Corporation)) overnight at 37° C. Fifty microliters of Y-per lysis buffer (Thermo Fischer Scientific, Waltham, Mass.) containing 40 μg/mL of 4MU-α-Neu5Gc was added to each well. The mixtures were incubated overnight at 37° C. in a static incubator. Fluorescence at λex=365 nm and λem=445 nm was read with a SpectraMax Plus 384 Microplate Reader (Molecular Devices, Sunnyvale, Calif.) at 6 h, 24 h and 48 h. Positive clones were defined as those showing fluorescence greater than 3 standard deviations above the mean background, and each was re-archived in a fresh 384-well plate in sterile 20% (v/v) glycerol. […]

[2] = Fluorogenic sialidase assay with 4MU-α-Neu5Ac; settings: compost metagenomic fosmid clones in E. coli, fluorescence λex=365 nm, λem=445 nm
Experimental: as §1
as §2, with “Fifty microliters of Y-per lysis buffer (Thermo Fischer Scientific, Waltham, Mass.) containing 40 μg/mL of 4MU-α-Neu5Gc was added to each well. The mixtures were incubated overnight at 37° C. in a static incubator.” left out

[3] = In vitro sialidase activity assay on mixed WT and Cmah−/− mouse serum (DMB derivatization, HPLC); settings: purified enzyme 0.5-10 μg; pH 6.5, 7.0 and 8.0; 1 hour at 37° C.
Experimental: Bin13 sialidases were tested for Neu5Gc release. Each of the five sialidases genes in bin13 were PCR amplified (FIG. 12) and heterologously expressed in vitro, purified, and assayed for its substrate preference. Sialidase activity measurements were performed using different enzyme concentrations (0.5-10 μg) at three different pH levels (6.5, 7.0, and 8) (FIGS. 3A, 13). […] Additionally, we tested in vivo sialidase activity in fresh fecal samples. Clarified fecal pellets from mice fed with PSM tend to preferentially release Neu5Gc compared to clarified fecal pellets from mice fed with Soy (FIG. 3D).
Sialidases purified as described above were quantified using SDS-PAGE image analysis with BSA references (Bio-Rad) and absorbance using the Nanophotometer P330 (Implen), with extinction coefficients calculated using ExPASy Translate. […] The samples were kept at −20° C. until derivatization and analyzed by HPLC as described below. […] The DMB-derivatized samples were analyzed on a Dionex Ultra3000 HPLC System using a Phenomenex Gemini 5μ C18 250×4.6-mm HPLC column at room temperature, eluted in isocratic mode with 85% water, 7% methanol, 8% acetonitrile. […]

[4] = Sialidase activity on food sources (Neu5Gc release); settings: 2 μg enzyme, 2 h at 37° C., Tris-HCl pH 7; beef, pork, PSM chow
Text: Fecal shotgun metagenomes from the Hadza people (Table 4), a genetically distinct indigenous ethnic group that resides in remote Tanzania was reanalyzed. The Hadza are hunter-gatherers and change their diet periodically throughout the year according to food availability. In dry seasons, their diet is enriched in meat and tubers, whereas in wet seasons it consists largely of honey and berries. Raw reads from Hadza metagenomes were mapped to bin13. […] To evaluate the sialidases genes present in the Hadza microbiome, the combined metagenomes were co-assembled and 24 genome bins containing 51 sialidase genes were identified (FIG. 17, Table 5). The binHz19, whose closest relative was Alistipes sp., was equally abundant in microbiomes from both seasons (FIG. 2B, Table 5). […] This difference supports the notion that sialidaseHz136 is capable of metabolizing structurally diverse glycans, a concept that would be of benefit to an individual with seasonal variations in diet. To additionally determine if sialidase26 and sialidaseHz136 can release Neu5Gc from food sources directly, we test their activity on beef, pork, and PSM chow as substrate.
Beef (New York Steak) and pork (breakfast sausage) were purchased at Whole Foods Market and cut in small pieces using sterile blades. PSM chow was powdered using mortar and pestle. […]

| Molecule | Hydrolysis of 4MU-α-Neu5Gc [1] | Preference for Neu5Gc hydrolysis compared to known bacterial exo-sialidases [1] | Activity on 4MU-α-Neu5Ac [2] | Substrate preference, Neu5Gc versus Neu5Ac release [3] | Release of Neu5Gc from food [4] |
| --- | --- | --- | --- | --- | --- |
| C19: GH33 exo-sialidase from compost soil metagenomic fosmid clone C19, SEQ ID NO. 7 (protein, Environmental sample) MKRTGWLLLLVSGPALCQPPRGYSIPLIDLAAEAWRQTVVDREPGQYLGHPTTVLLEDGRTVLAVYPKGHGRGAIVYKRSRDGGRTWSARLPVPENWATSQETPTIHRVVDPRGRKRLILFSGLYPIRMSVSEDDGETWTPLAPIGNFGGVVAMASVERLRDGRYMALFHDDGRFLRGGGKPDRFVVYKTLSGDGGLTWSEPVPILSHPQAHLCEPGLLRSPDGRRIAILLRENSRKFNSFVSFSDDEGETWSEPRELPGALTGDRHTAVYARDGRLFISFRDTTHESPTRGDWVAWVGRFGDIENGREGQYRVRLMKNHKDLDCCYPGVLRLPDDTILTTTYGHWTPGEPPYIVSIRLRLSELDRRAQGAGR | significant hydrolysis; also recorded: significant activity | marked preference for Neu5Gc hydrolysis | only minor activity |  |  |
| C22: GH33 exo-sialidase from compost soil metagenomic fosmid clone C22, SEQ ID NO. 8 (protein, Environmental sample) MVIAWMAGVQCTAAALVDLGVTILDISGEPERQVIVDREPGQYLGHVSTVLLEDDKTILAVYPKGHGRGAIVLKRSEDGGRTWSGRLPVPASWATSKETPTIHRVVDARGRRRLLLWSGLYPARRALSDDDGRTWTELEPVGEWGGIVVMGFVEATRQPGHYVAMFHDDGRYFAAQPSTNRSMTLYLTRSSDGGVSWSSPVAVWSNSAVHLCEPGGIWSPDRRRLAVLLRENRRVNNSHIMFSDDEGHTWTTPVEMPLSRAGDRHTLRYTPDGRIVCVFRAVTPVGMRGRSFGQNEDVDTLGVGSPFEGDCVAWVGTWDDLVHNRPGQYYVRLLNNRKGWDTTYPGVEVLPDGTVVVTTYGHWNAGEPPYIRSVRFRLEELDRMAAKASQKP | significant hydrolysis; also recorded: significant activity | marked preference for Neu5Gc hydrolysis | only minor activity |  |  |
| sialidase26: Bin13 GH33 sialidase from mouse gut metagenome, SEQ ID NO. 4, PDB 6MRX (protein, Environmental sample, 4, PDB 6MRX) MKKNLFLSIIFSFCVILQAFASDTVFVRETQIPVLIERQDNVLFMLRLNAKESHTLDEVVLNFGKDVNMSDIQSVKLYYSGTEARQNYGKNFFAPVSYISSHTPGKTLAANPSYSINKSQVNNPKRKVALKANQKLFPGINYFWISLQMKPDASLLDKVAAKIAAIKVDNKEALMHTVSPENIVHRVGVGVRHAGDDGSASFRIPGLVTTNKGTLLGVYDVRYNNSADLQEHVDIGLSRSVDGGKTWEKMRLPLAFGETGDLPAAQNGVGDPSILVDTKTNTVWVVAAWTHGMGNQRAWWSSYPGMDMNHTAQLVLSKSTDDGKTWSKPINITEQVKDPSWYFLLQGPGRGITMQDGTLVFPIQFIDSTRVPNAGIMYSKDRGETWKIHNYARTNTTEAQVAEVEPGVLMLNMRDNRGGSRAISTTKDLGKTWTEHSSSRKALQEPVCMASLISVKAKDNVLNKDILLFSNPNTVKGRHHITIKASLDGGVTWLPEHQVMLDEGEGWGYSCLTMIDKETIGILYESSVAHMTFQAVQLRDIIK |  |  |  | preference for Neu5Gc | pronounced sialidase activity by releasing Neu5Gc from all food tested |
| sialidaseHz136: Sialidase from binHz19 of Hadza shotgun metagenome, SEQ ID NO. 6, PDB 6MNJ (protein, Environmental sample, 6, PDB 6MNJ) MMKRTFWLIALSLLSLTLSASDSLRIHNPQIPILLDRMDNVLFLIRVPDAVQGNVLESLTVEFGPDTDLNSIAELRLFYSGTEAVRRQGLRFSPVEYISAHNVWNTRSANPSYSVMQEQASKIGRKVVLHSRQPMVGGINYYWVSVRMNPDASLLTELRARVSEVVVNGKKIPVACDSREVVRRMGYGVRHAGDDHSMAYRIPGLVTTNSGSLIGTYDVRWNSSVDLQERIDIGVSRSTDKGQTWEPMRIAMSFADIDGLPSGQNGVGDPAVLVDEKTGTIWVMAAWTHGMGNGRAWTNSMPGMEPMETPQLMLARSDDDGRTWSEPINITKQVKDPSWCFLLQGPGRGITMRDGTLVFAIQFIDKDRMPHAGIIFSKDHGETWHIHNPARSNTTEAQVAEVEPGVLMLNMRDNRGGARAVMTTRDLGRTWTEHVSHRTTLREPVCMASLIAVPAEKNVLGKDLLLFSNPDTTDGRRDITIKASLDGGVTWPYSLLLDEGDSWGYSCLTMIDSQTVGILYESSVAHITFQAAKLKAIVK |  |  |  | preferential activity for Neu5Gc over Neu5Ac in all tested conditions | pronounced sialidase activity by releasing Neu5Gc from all food tested |
